Holding throughout (assay): MST
Series [1] concerns the target T1, A3G-NTD-CTD2 (wild-type NTD fused to soluble CTD2) (Homo sapiens, UniProt Q9HC16 1-384, P200A;L234K;N236A;C243A;P247K;F310K;Q318K;C321A;Q322K;C356A).
A further series has as its target A3G-NTD-R24A-CTD2 (Homo sapiens, UniProt Q9HC16 1-384, R24A;P200A;L234K;N236A;C243A;P247K;F310K;Q318K;C321A;Q322K;C356A).
The target of series [2] is T1, A3G-NTD-CTD2 (wild-type NTD fused to …). This is another data set of the same source.
For series [3] the target is unchanged. The source holds these as a separate data set.

Where two headings read alike, the source gives them in different places.

T1 sequence (Q9HC16 whole entry P200A/L234K/N236A/C243A/P247K/F310K/Q318K/C321A/Q322K/C356A, the tested form may be a part): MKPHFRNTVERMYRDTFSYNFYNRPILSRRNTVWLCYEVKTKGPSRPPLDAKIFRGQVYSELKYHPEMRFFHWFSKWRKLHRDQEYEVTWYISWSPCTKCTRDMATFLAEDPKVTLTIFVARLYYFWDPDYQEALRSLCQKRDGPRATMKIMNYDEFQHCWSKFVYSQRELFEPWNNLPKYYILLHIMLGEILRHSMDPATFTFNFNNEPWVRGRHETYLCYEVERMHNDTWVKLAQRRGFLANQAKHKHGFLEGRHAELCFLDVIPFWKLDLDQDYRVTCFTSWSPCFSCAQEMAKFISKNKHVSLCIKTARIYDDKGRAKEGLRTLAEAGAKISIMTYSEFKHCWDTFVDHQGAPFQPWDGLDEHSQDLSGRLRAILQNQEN
Sequence of A3G-NTD-R24A-CTD2 (Q9HC16 whole entry R24A/P200A/L234K/N236A/C243A/P247K/F310K/Q318K/C321A/Q322K/C356A, the tested form may be a part): as the sequence (Q9HC16 whole entry P200A/L234K/N236A/C243A/P247K/F310K/Q318K/C321A/Q322K/C356A, the tested form may be a part) above, with R24A counted along it

Turning to AATCCCAATTTTTTTT (ssDNA) [16-nt CCC (5'-TCCC-polyT)], the Kd (commonly the equilibrium constant for the complex coming apart) was 4.9 ± 0.1 µM in series [1], 24.6 ± 2.7 µM with A3G-NTD-R24A-CTD2 and 6.8 µM in series [2].
In series [3], AATCCCAAA (ssDNA) [9-nt CCC] yielded a Kd of 20.5 µM.
On to AATTCCAATTTTTTTT (ssDNA) [16-nt CC (5'-TCC-polyT)], for which the Kd in series [1] amounted to 31.4 ± 3.8 µM; with A3G-NTD-R24A-CTD2 it was 132 ± 2.6 µM.

Values taken from PMC7771068.
